Test: label from the status in PepcDB records

Sequence | protein production
MVETLPALEIGEDERLDLENLATGAFFPVKGFMTREEALSVAHEMRLPTGEVWTIPILLQFREKPRVGPGNTVALLHGGERVALLHVAEAYELDLEALARAVFGTDSETHPGVARLYGKGPYALAGRVEVLKPRPRTPLEKTPEEVRAFFRQRGWRKVVAFQTRNAPHRAHEYLIRLGLELADGVLVHPILGAKKPDDFPTEVIVEAYQALIRDFLPQERVAFFGLATPMRYAGPKEAVFHALVRKNFGATHFLVGRDHAGVGDFYDPYAAHRIFDRLPPLGIEIVKVGAVFHCPLCGGIASERTCPEGHREKRTAISMTKVRALLREGKAPPSELVRPELLPILRRGV | not failed
MLISHSDLNQQLKSAGIGFNATELHGFLSGLLCGGLKDQSWLPLLYQFSNDNHAYPTGLVQPVTELYEQISQTLSDVEGFTFELGLTEDENVFTQADSLSDWANQFLLGIGLAQPELAKEKGEIGEAVDDLQDICQLGYDEDDNEEELAEALEEIIEYVRTIAMLFYSHFNEGEIESKPVLH | not failed
MTFSKELREASRPIIDDIYNDGFIQDLLAGKLSNQAVRQYLRADASYLKEFTNIYAMLIPKMSSMEDVKFLVEQIEFMLEGEVEAHEVLADFINEPYEEIVKEKVWPPSGDHYIKHMYFNAFARENAAFTIAAMAPCPYVYAVIGKRAMEDPKLNKESVTSKWFQFYSTEMDELVDVFDQLMDRLTKHCSETEKKEIKENFLQSTIHERHFFNMAYINEKWEYGGNNNE | not failed
MKKMAAAESMEAEICINREIPPGLFPAVKGTDDLMAEGDIMSLLESIKKTEGGSGEVSVEDKMDEIFAKLEKSQVLLIQGDTGCGKTTKIPKYLLRKYGKIVCSQPRRIAAVSIAKKVAVDMKGKIGEDVGYSIRFDDMSSGRTRLKYVTDGVLLREIKNDKHLKKYDVVIIDEAHERSVNIDILLGYLKSILSERKDLRVVIMSATLNSEKFASFFRCQTVEIRHRMFPLEIFFLKKSDVADYVDEAMKTVVQIHRGEESGDILVFLTGRDEINSGREILMEVLGNDAEVCCIYSTLSPEEQEAVFRKTKKRKIVLATNIAETSITIEGVRYVVDSGRAKQMRYSASFGMDILEVVWISKAQAKQRAGRAGRTQAGKVFRMYSKEEYQKMDDNTTPEIFCCNLGKIVLELKSIGVDDIVNFNLIDKPDASNVKKALEMLYYLRAIGGDGKITSIGVKASTIPLDPELAVSLIVSSELGCLEDVSIIAAMLSVGNVWLDVPRYSQSYKAFLGARAAHFDKRGDHFLLLKIYRRWEKTGFKISHLKRWFLNVKTMLQTVKIKKQLCSMFRSPCKSDESGILPSLCAGYFMNVAKLVGESYVSIFNDTPCFIHYTSCMSRQNAKYILYHTLCRTGKEYARYCVGVTLEDLLKGANHMFAKVRKTEK | failed
MKRPRGKPLFKPVKERNPVAVGVAGLLVLTLVALLVYNVDRLPFGGGTTYSADFSESAGLDEGDEVRIAGVKVGQVTGVALDGAKVKVSFEVEDAWIGDRTTAAIAIKTVLGDKYLALDPLGSGRQDPGARIPLARTTSPYDVTQAFQDLSGTVDDIDTGRLAESFETISDTFKDSPPHVRKAATGLSDLSKSISKRDAKLSELLKGSARFTKTLENNKSSFETLIEDGGPLLGELRDRRTAINALLKGSQDLGTELGGLVKDNEKQLGPTLKALGRVTSVLEKNNTRLGETLALVGPYYRLVGNTLGNGRWFDSYLCGVVPRDYLPETSQPSTGCLPPKQPAAAQGSGARLEHHHHHH | failed
MGSVPMGHKRISFHIVQTTRSGDRSASRTSVEEASDQGPSPWTTADSAIFQLRWSCVWRRAVSTSANIEDGADAAFVASPPPFGAGVADLYQALLVPILFEPYALEMAIVAERSKPVSVLEVAAGTGALTRALRAKLDPAAEIVATDLSQAMIDVGAPSVTMSRTHWMHADAQDLPFAPLMFDLVVCQFGVMFFPDKPKAYHEAKRVLRSGGRLLFSTWDSLAANDFARCVDECLTGLFPSDPPDFLGRLPYSYFDPSLIKAEVSSAGFKAVSCERLELASIAATSQDVATAFCRGTPLSGEIEWRAPERMSEIVDEVAERVASRYGARPCGSMSALVVSGRAP | failed
MPEDLNWAIGGEAGDGIDSTGKIFAQALSRAGRHVFTSKDFASRIRGGYTAYKVRTSVDRVESVVDRLDILIALTERTIHENEDELHEDSVIIYDGERSTMQDVEVPGDATALEVPLKRLAEDAGGAIMLNVVALGAACEVTGFPIENLDESLEKRFGDKGEAIVENNKEAARKGQHYVQEEYGEFDYDMETTDEDYVLLNGDEAIGMGAIAAGCRFYSGYPITPATDVMEYMTGRVDQFGGKVVQAEDELSAINMALGAARAGARAMTATSGPGIDLMTETFGLVATSETPLVICDVMRSGPSTGMPTKQEQGDLNMTLYGGHGEIPRFVVAPTTVSECFWKTVEAFNLAEKYQTPVFLVSDLAMAVTEQTFSPETFDMDEVEIDRGKVVDENEIDAWLDEKGRFQAHFAAADGVSPRAFPGTTDGAHMTTGLEHDELGRRTEDTDVRIEQVDKRQRKVETAREQEDFDYREFGDSDADTLVISWGSNEGALREGLTLLEEDGYDVRFLSVPYIFPRPDLSEEIEAAEDVIVVECNATGQFADVIEHDVLERVQRINKYNGVRFKADELATEIKQTLDTPPEATQ | failed
MQDELVILSSIASIMVAIIVLILFYIEKIRTYVGVFFVYFSLTMMIAMFVGASIYLLYPSRVSLAIAFGINTFIMIPLIAYFLLKIAKLANTPFRGERTHVVIFSILLVLNEILMGTTFGIAQFGFSRFSNLYYSLYFSINSYWFFYPMMAEMLALYLLHYLKGSINRELFPLIGLATFPPTAFDYQEWFYSALIFSLAFSILGSILSKRLWRYVYLMLILSELILLINAIPYDIAIAISMILYYYQSLLPLRR | failed
ITVADQISHWSAGRIKNRTRIPECIHSSAATTLAGPHTMEGESVKLSSQTLIQAGDDEKNQRTITVNPAHMGKAFKVMNELRSKQLLCDVMIVAEDVEIEAHRVVLAACSPYFCAMFTGDMSESKAKKIEIKDVDGQTLSKLIDYIYTAEIEVTEENVQVLLPAASLLQLMDVRQNCCDFLQSQLHPTNCLGIRAFADVHTCTDLLQQANAYAEQHFPEVMLGEEFLSLSLDQVCSLISSDKLTVSSEEKVFEAVISWINYEKETRLEHMAKLMEHVRLPLLPRDYLVQTVEEEALIKNNNTCKDFLIEAMKYHLLPLDQRLLIKNPRTKPRTPVSLPKVMIVVGGQAPKAIRSVECYDFEEDRWDQIAELPSRRCRAGVVFMAGHVYAVGGFNGSLRVRTVDVYDGVKDQWTSIASMQERRSTLGAAVLNDLLYAVGGFDGSTGLASVEAYSYKTNEWFFVAPMNTRRSSVGVGVVEGKLYAVGGYDGASRQCLSTVEQYNPATNEWIYVADMSTRRSGAGVGVLSGQLYATGGHDGPLVRKSVEVYDPGTNTWKQVADMNMCRRNAGVCAVNGLLYVVGGDDGSCNLASVEYYNPVTDKWTLLPTNMSTGRSYAGVAVIHKSL | not failed
MDLVPLKLVTIVAESLLEKRLVEEVKRLGAKGYTITPARGEGSRGIRSVDWEGQNIRLETIVSEEVALRILQRLQEEYFPHYAVIAYVENVWVVRGEKYV | not failed
MNSCVLFAEVIQGPELRYTQENQMAVATMVVQFASLRSEEPPMSLRTVAWGNLGQKMHAECKVGDRLILEGRLKMDTIDRPEGFKEKRAELVVSRFYTVDGNIVDHPAQPAATVPVTPRVAPPPPEFEDISLDEVPFLEHHHHHH | not failed
SPEPYPPLVIETPAMEAAVTALIDRVFGPGRFAKSSERLREGNTLLADCSFVSLRDGAPVGCVRMWPVTIGGEPVAFLGPLAVDPDERSAGLGQALVEAACEAARAAGWRAVLLVGDGPYFGRVGFTNAHTAGVIMPGPVDQRRVLLLPLRDGG | failed
MDLIITFGLLTLVVLLEFIVVPAIILKRGTKFSTIYNYPIYIINSTEINAYSLTSVWGKFIVLTRGLVNGEDEEHIKAAIMHEVGHLKLNHHVKMSLYIISVIMVFTYLLGVNMLTLIPFALVALLVQRYLQRRLELGADRFALRFINKKMLEDLITKYDMKETTFLSTHPNIHVRLKNINE | failed
MSLSGPRVERLEVSAYTVPTDYPESDGTLQWDSTTMILVEAHGGGRKGLGYTYGDVSVGRFVESKLAGVAEGSDALSPPAVWARMQAAIRNAGRPGVGAMAVSAVDIALWDLKARLLGLPLADALPRFHAEVPVYGSGGFTSYPLRRLQEQLGGWAAAGIPRVKMKVGREPEKDPERVRAAREAIGESVELMVDANGAYTRKQALYWAGAFAREAGISYLEEPVSSEDREGLRLLRDRGPGGVAIAAGEYEWTLPQLHDLAGCVDILQADVTRCGGITGLLRVDGICRGHQIPFSAHCAPAVSAHACCAVESLLHLEYFHDHARVERLLFDGTLDPEGGSLRPDPDRPGLGLELKRSEAGKYAAEGHHHHHH | not failed
LLSLALAALMEDVHAHSGAVYLLAPDEPVLEMAVMAGLPRAFAAPWERVGLSAPLPVAEAVRERRLVWVNGEEQMAGRYPRVAVVLPYSFALAALPLACADTVYGALFVTWPDSHPPELSSRERDQLGVACDRLATRLAHA | failed
MTKSQQKVSSIEKLSNQEGIISALAFDQRGALKRMMAEHQSETPTVEQIEQLKVLVSEELTQYASSILLDPEYGLPASDARNNDCGLLLAYEKTGYDVNAKGRLPDCLVEWSAKRLKEQGANAVKFLLYYDVDDTEEINIQKKAYIERIGSECVAEDIPFFLEVLTYDDNIPDNKSAEFAKVKPRKVNEAMKLFSEDCFNVDVLKVEVPVNMNFVEGFSEGEVVYTKEEAAQHFRDQDAATHLPYIYLSAGVSAELFQDTLKFAHDSGAQFNGVLCGRATWSGAVKVYIEEGEQAAREWLRTVGFKNIDDLNTVLKTTATSWKNK | not failed
MATRSCVSRGSAGSAAAGPVEAAIRAKLEQALSPEVLELRNESGGHAVPAGSETHFRVAVVSSRFEGMSPLQRHRLVHEALSEELAGPVHALAIQAKTPAQWRENPQLDISPPCLG | not failed
MKLTLKNLSMAIMMSTIVMGSSAMAADSNEKIVIAHRGASGYLPEHTLPAKAMAYAQGADYLEQDLVMTKDDNLVVLHDHYLDRVTDVADRFPDRARKDGRYYAIDFTLDEIKSLKFTEGFDIENGKKVQTYPGRFPMGKSDFRVHTFEEEIEFVQGLNHSTGKNIGIYPEIKAPWFHHQEGKDIAAKTLEVLKKYGYTGKDDKVYLQCFDADELKRIKNELEPKMGMELNLVQLIAYTDWNETQQKQPDGSWVNYNYDWMFKPGAMKQVAEYADGIGPDYHMLIEETSQPGNIKLTGMVQDAQQNKLVVHPYTVRSDKLPEYTPDVNQLYDALYNKAGVNGLFTDFPDKAVKFLNKE | not failed
MQENKKIDENIDDFLKIVVDLNHIQIEVRDEVQAILLLSSLPSRYDGLVETMKYSNSREKLRLNDVMVAARDKEREMSQNNRLIAEGHYARRRPVGKNNNQGNKGKNRSWSKSADGKRVCWICGKEKHFNEQCYKWLERNKPK | failed
MKPENKIPVLTRLSDEMTAVVNFQQPGLPPWPADGDIETQRQYYLLERRFWNADAPSMTTRTCAVPTPYGDVTTRLYSPQPTSQATLYYLHGGGFILGNLDTHDRIMRLLARYTGCTVIGIDYSLSPQARYPQAIEETVAVCSYFSQHADEYSLNVEKIGFAGDSAGAMLALASALWLRDKHIRCGNVIAILLWYGLYGLQDSVSRRLFGGAWDGLTREDLDMYEKAYLRNDEDRESPWYCLFNNDLTRDVPPCFIASAEFDPLIDDSRLLHQTLQAHQQPCEYKMYPGTLHAFLHYSRMMTIADDALQDGARFFMARMKTPR | not failed
MKAVANRYYVLCQEKVFIRSLLSGFFLLFISFLIMNFAGKYASLMAGNPVNDLILDNLPLRDVTLFHVNAAIIFWTIFTIYTLLNPAFIPFITKSAALFILIRCAFISMTHLGAPPNQLSIPDNFSSLVLFDGDLFFSGHVGGPFLMMLIFWNKTTLRYICLAAAVFFAYTVLIGHIHYSIDVFAAPFITYGIFHIGQFLFASDYQRLKSELTSSTGN | failed
MILNVAGPLGNPAPMEKFGKILAIGAYVGIAEVYPIAKAWQEIGNDVTTLHVTFEPMVILKDYFEKAVSRHIVEPVKIDQEKSFQENTKNVTKALTAKVKELLDNENWDLVFMVGPPGDQKAVFEVVKKYGIPMKVDLHPIMLEHHHHHH | not failed

Source: a protein production outcome set (Wang et al. 2014)
